Measurements from the RNAGym collection of RNA variant scans (doi:10.1073/pnas.2313332121).

B1: TPR t1 (parent)
chain: GACCAAUCUGCCCUCAGAGCUCGAGAACAUCUUCGGAUGCAGAGGAGGCAGGCUUCGGUGGCGCGAUAGCGCCAACGUCCUCAACCUCCAAUGCAUCCCACCACAUGAUGAUGCCUGAAGAGCCUUGGUUUUUUG

Variants of: B1
Assay: polymerase ribozyme fitness, log enrichment relative to wild type (log ratio); higher = more active; in vitro selection for triplet polymerase activity
In short: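 Mutant libraries of each subunit of a heterodimeric triplet polymerase ribozyme were built by PCR and transcribed. Each library went through one round of in vitro selection in triplicate: annealing with biotinylated primer, partner subunit and triplets, frozen incubation at −7 °C, gel excision of extended constructs, streptavidin-bead capture and RT-PCR. Input and output libraries were Illumina-sequenced; only genotypes with ≥10 input reads and ≥1 read per output were kept. Fitness is log2(genotype enrichment/wild-type enrichment), using inverse-variance-weighted replicate averages.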

Variant	polymerase ribozyme fitness (log ratio)
GACCAAUCUGCCCUCAGAGCUCGAGAACAUCUUCGUAUGCAGAGGAGGCAGGCUUCGGUGGCGCGAUAGCGCCAACGUCCUCAACCUCCAAUGCAUCCCACCACAUGAUGAUGCUUGAAGAGCCUUGGUUUUUUG	-2.01
GACCAAUCUGCCCUCAGAGCUCGAGAACAUCUUCUGAUGCAGAGGAAGCAGGCUUCGGUGGCGCGAUAGCGCCAACGUCCUCAACCUCCAAUGCAUCCCACCACAUGAUGAUGCCUGAAGAGCCUUGGUUUUUUG	-5.64
GACCAAUCUGCCCGCAGAGCUCGAGAACAUCUUCGGAUGCAGAGGAGGCAGGCUUCGGUGGCGCGAUAGCGCCAACGUCCUCAACCUCCAAUGCAUCCCACCACAUGAUGAUGCCUGAAGAGCCUUGGUUUUUUG	-1.56
GACCAUUCUGCCCUCAGAGCUCGAGAACAUCUUCGGAUGCAGAGGAGGCAGGCUUCGGUGGCGCGAUAGCUCCAACGUCCUGAACCUCCAAUGCAUCCCACCACAUGAUGAUGCCUGAAGAGCCUUGGUUUUUUG	-0.9
GACCAAUCUGCCCUCAGAGCUCGAGAACAUCUUCGGAUGCAGAGGAGGCAGGCUUGGGUGGCCCGAUAGCGCCAACGUCCUCAACCUCCAAUGCAUCCCACCACAUGAUGAUGCAUGAAGAGCCUUGGUUUUUUG	-2.19
GACCAAUCUGCCCUCAGAGCUCGAGAACAUCUUCGGAUGCAGAGGAGGUAGGCUUAGGUGGCGCGAUGGCGCCAACGUCCUCAACCUCCAAUGCAUCCCACCACAUGAUGAUGCCUGAAGAGCCUUGGUUUUUUG	-5.08
GACCAAUGUGCCCUCAGAGCUCGAGAACAUCUUCGGAUGGAGAGGAGGCAGGCUUCGGUGGCGCGAUAGCUCCAACGUCCGUAACCUCCAAUGCAUCCCACCACAUGAUGAUGCCUGAAGAGCCUUGGUUUUUUG	-0.811
GACCAAUCUGCCCUCAGAGCUCGAGAACAUCUUCGGAUGCAGAGGAGGCAGGCUUCGGUGGCGCGAUAACGCCAACGUCCUCAACCUCCAAUGCAUCCCACCACAUGAUGAUGCCUUAAGAGCAUUGGUUUUUUG	-4.19
GACCAAUCUGCCCUCAGAGCUCGAAAACAUCUUCGGAUGCAGAGGAGGAAGGCUUCAGUGGCGCGAUAGCGCCAACGUCCUCAACCUCUAAUGCAUGCCACCACAUGAUGAUGCGUGAAGAGCCUUGGUUUUUUG	-6.47
GACCAAUCUGCCCUCAGAGCUCGAGAACAUCUUCGGAUGCAGAGGAGGCAGGCUUCGGUGCCGCGAUAGCGCCAACGUCCUCAACCUCCAAUGUAUCCCACCACAUGAUGAUGCCUGAAGAGCCUUGGUUUUUUG	-1.25
GACCAAUCUGCCCUUAGAGCUCGAGAAGAUCUUCGGAUUCAGAGGAGGCAGGCUUCGGUGGCGCGAUAGCGCCAACGUCCUCAACCUCCAAUGCAUCCCACCACAUGAUGAUGCCUGAAGAGCAUUGGGUUUUUG	-5.23
GACCACUCUGCCCUCAGAGCUCGAGAACAUCUUCGGAUGCAGAAGAGGCAGGCUUCGGUGUCGCGAUAGCGCCAACGUCCUCAACCUCCAAUGCAUCCCACCACAUGAUGAUGCCUGAAGAGCCUUGGUUUUUUG	-0.646
GACCAAACUGCCCUCAGAGCUCGAGAACAUCUUCGGAUGCAGAGGAGGCAGGCUUCGGUGGCACGAUAGCGCCAACGUCCUCAACCUCUAAUGCAUCCCACCACAUGAUGAUGCCUGAAGAGCCUUGGUUUUUUG	-1.1
GACCAAUCUGUCCUCAGAGCUCGAGAACAUCUUCGGAUGCAGAGGAGGCUGGCUUCGGUGGCGCGAUAGCGCCAACGUCCUCAACCUUCAAUGCAUCCCACCACAUGAUGAUGCCUGAAGAGCCUUGGUUUUUUG	-1.26
GACCAAUCUGCCCUCAGAGCUCGAGAACAUCUUCGGAUGCCGAGGAGGCAGGCUUCGGUGGCGCGAUACCGCCAACGUCCUCGACCUCCAAUGCAUCCCACCACAUGAUGAUGCCUGAAGAGCCUUGGUUUUUUG	-3.72
GACCAAUCUGCCCUCAGAGCUCGAGAACAUCUCCGGAUGCAGAGGAGGCAGGCUUCGGUGGUGCGAUAGCGCCAACGUCCUCAACCUCCAAUGCAUCCUACCACAUGAUGAUGCUUGAAGAGCCUUGGUUUUUUG	-6.64
GGCCAAUCUGCCCUCAGUGCUCGAGAAGAUCUUCGGAUGCAGAGGAGGCAGGCUUCGGUGGCGCGAUAGCGCCAACGUCCUCAACCUCCAAUGCAUCCCACCACAUGAUGAUGCCUGAAGAGCAUUGGUCUUUUG	-5.83
GACCAACCUGCCCUCAGAGCUCGAGAACAUCUUUGGAUGCAGAGGAGGACGGCUUCGGUGGCGCGAUAGCGCCAACGUCCUCAACCUCCAAUGCAUCCCACCACAUGAUGAUGCCUGAAGAGCCUUGGUUUUUUG	-5.35
GACCAAUCUGCCCUCAGAGCUCGAGAACAUCUUCGGAUGCAGAGGAGGCAGGCUUCGGUGGUGCGAUAGCGCCAACGUCUUCAACCUCCAAUGCAUUCCACCACAUGAUGAUGCCUGAAGAGCCUUGGUUUUUUG	-0.921
GACCAAUCUGCCCUCAGAGCUCGAGAACAUCUUAGGAUGCAGAGGAGGCAGGCUUCGGUGGCGCGAUAGCGCCAACGUCUUCAACCUCCAAUGCAUCCCACCACAUGAUGAUGCCUGAAGAGCCUUUGUUUUUUG	-4.5
GACCAAUCUGCCCUCAGAGCUCGAGAACAUCUUCGGAUGCAGAGGAGGCAGGCUUCGGUGGCGCGAUAGCGCCAACGUCCUCAACCCCCAAUGCAACCCACCACAUGAUGAUGCCUGAAGAGCCUUGGUUUUUUG	0.252

Variant	polymerase ribozyme fitness (log ratio)
GACCAAUCUGCCCUCAGAGCUCGAGAACAUCUUCGAAUGCAGAGGAGGCAGGCUUCGGUGGCGCGAUAGCACCAACGUCCUCAACCUCCAAUGCAUCCCACCACAUGAUGAUGCCUGAAGAGCCUUGGUUUUUUG	-1.64
GACCAAUCUGCCCUCAGAGCUCGAGAACAUCUUCGGAUGCAGAGGAGGCAGGCUUCGGUUGCGCGAUAGCGCCAACGUCCUCAACCUCCAAUACAUCCCACCACAUGAUGAUGCCUGAAGAGCCUUGGUUUUUUG	-0.449
GACAAAUCUGCCCUCAGAGCUCGAGAACAUCUUCGGAUGCAGAGGAGGCAGGCUUCGGUGGCGCGAUAGCGCCAACGUCCUCAACCUCCAAUGCAUCCCACCACAUGAUGAAGCCUGAAGAGCCUUGGUUUUUUG	0.26
GACCAAUCUGCCCUCAGAGCUCGUGAACAUCUUCGGAUGCAGAGGAGGCAGGCUUCGGUGGCGCGAUAGCGCCAACGUCCUCAACCUCCAAUGCAUCCCACCACAUGAUGAUGCCUGAAGAGCUUUGGUUUUUUG	-5.45
GACCAAUCUGCCCUCAGAGCUCGAGAACAUCUUCGGAUGCAGAGGAGGCAGGCUUCGGUGACGCGAUAGCGCCAACGUCCUCAACCUCCAAUGCAUUCCACCACAUGAUGAUGCCUGAAGAGCCUUGGUUUUUUG	-0.149
GACCAAUCUGCCCUCUGAGCUCGAGAACAUCAUCGGAUGCAGAGGUGGCAGGCUUCGGUGGCGCGAUAGCGCCAACGUCCUCAACCUCCAAUGCAUCCCACCCCAUGAUGGUGCCUGAAGAGCCUUGGUUUUUUG	-5.71
GACCAAUCUGCCCUCGGAGCUCGAGAACAUCUUCGGAUGCAGAGGAGGAAGGCUUCGGUGGCGCGAUGGCGCUAACGUCCUCAACCUCCAAUGCAUCCCACCACAUGAUGAUGCCUGAAGAGCCUUGGUUUUUUG	-4.78
GACCAAUCCGCCCUCAGAGCUCGAGAACAUCUUCGGAUGCAGAGGAGGCAGGCUUCGGUGGCGCGAUAGCGCCAACGUCCUCAACCUCCGAUGCAUCCCACCACAUGAUGAUGCUUGAAGAGCCUUGGUUCUUUG	1.24
GACCAAUCUGUCCUCAGAGCUCGAGAACAUCUUCGGUUGCAGAGAAGGCAGGCUUCGGUGGCGCGAUAGCGCCAACGUCCUCAACCUCCAAUGCAUCCCACCACAUGAUGAUGCCUGAAGAGCCUUGGUUUUUUG	-1.81
GACCAAUCUGCCCUCAGAGAUCGAGAACAUCUUCGGAUGUAGAGGAGGCAGGCUUCGGAGGCGCGAUAGCGCCAACGUCCUCAACCUCCAAUGCAUCCCACCACAUGAUGAUGCCUUAAGAGCCUUGCUUUUUUG	-4.96
GACCAAUCUGCCCUCAGAGCUCGAGAACAUCUUGGGAUGCAGAGGAGGCAUGCUUCGGUGGCGCGAUAGCGCCAACGUCCUCAACCUCCAAUGCAUCCCACCAUAUGAUGAUGCCUGAAGAGCCUUGGUUUUUUG	-6.64
GACCAAUUUGCCCACAGAGCUCGAGAACAUCUUCGGAUGCAGAGGAGGCAGGCUUCGGUGGCGCGAUAGCGAUAACGUCCUCAACCUCCAAUGCAUCCCACCACAUGAUGAUGCCUGAAGAGCCUUGGUUUUUUG	-2.99
GACCAAUCUGCCCUCAGAGCUCGAGAACAUCUUCGGAUGCAGAGGACGCAGGCUUCGAUGGCGCGAUAGCGCCAACGUCCUCAACCUCCAAUGCAUCCCACCACAUGAUGAUGCCUGAAGGGCCUUGGUUUUUUU	0.038
GACCAAUCUGCCCUCAGAGCUCGAGAACAUCUUCGGCUGCAGAGGAGGCAGGCAUCGGUGGCGUGAUAGCGCCAACGUCCUCAACCUCCAAUGCAUCCCACCACAUGAAGAUGCCUGAAGAGCCUUGGUUUUUUG	-6.92
GACCAAUCUGCCCUCAGCGCUCGAGAACAUCUUCGGAUGUAGAGGAGACAGGCUUGGGUGGCGCGAUAGCGCCAACGUCCUCACCCUCCAAUGCAUCCCACCACAUGAUGAUGUCUGAAGAGCCUUGGUUUUUUG	-5.13
GACCAAUCUGCGCUAAGAGCUUGAGGACAUCUUCGGAUGCAGAGGAGGCAGGCUUCGGUGGCGCGAUAGCGCCAACGUCCUCAACCUCCAAUGCAUCCCACCACAUGAUGAUGCCCGUAGAGCGUUGGUUUUUUG	-2.97
GACCAAUCUGCCCUCAGAGCUCGAGAACAUCUUCGGAUGCAGAGGAGGCAGGCUUCGGUGGCGCGAUAGCGCCAUCGUCCUCAACCUCCAAUGCAUCCCACCACAUGAUGCUGCCUGAAGAGCCUUGGUUUUUUG	0.255
GACCAAUCUGCCCUCAGAGCUCGAGAACAUCUUCGGAUGCAGAGGAGGCAGGCUUCGGUAGCGCGAUAGCGCCAACGUCCUCAACCUCCAAUGCAUCCUACCACAUGAUGAUGCCUGAAGAGCCUUGGUUUUUUG	-2.87
GACCAAUCUGCCCUCAGAGCUCGAGAACAUCUUCGGAUGCAGAGGAGGCAGGCUUCGGUAGCGCGAUAGCGCCAACGUCCUCAACCUCCAAUGCAUCCCACCACAUGAUGAUGCCUGAAGAACCUUGGUUUUUUG	-0.483
GACCUAACUGCCCUAAGAGCUCGAGAACAUCUUCGGAUGCAGAAGAGGCAGGCUUAGGUAGCGCGAUAGCGCCAACGUCCUCAACCUCCAAUGCAUCCCACCACAUGAUGAUGCCUGAAGAGCCUUGGUUUUUUG	-3.35
GACCAAUAUGCCCUCAGAGCUCGAGAACAUCUUCGGAUGCAGAGGAGGCAGGCUUCGGUGGCGCGAUAGCGCCAACGUCCUCAACCUCCAAUGCAUCCCACCACAUGAUGAUGCAUGAAGAGCCUUGGUUUUUUG	0.286
